Laboratory results published in article PMC10684580, “Unexpected dynamics in femtomolar complexes of binding proteins with peptides” (Nature Communications, 2023).
Values belong to the molecule of their own block, whether it stands above or below them.

Key:
[1] = test system: N^AM4C; test: NMR line-shape simulation, N^AM4C peptide titration (three-state); format: binding; conditions: three-state model, 310 K
Description: (§1) The peptides were dissolved in NMR buffer to generate 10 mM stocks that were titrated in 0.1 molar equivalents steps to 250 μM dArmRPs in NMR buffer up to 1.5 equivalents, and then in 0.5 equivalents steps up to 5.5 equivalents. For each step, a [^15N,^1H]-HSQC experiment was recorded at 310 K with the other parameters described above.
The change of line-shape and peak positions in the [^15N,^1H]-HSQC spectra upon adding (KR)n was simulated using in-house written Mathematica notebooks. In principle, for the simple two-state process of ligand binding, described only by single kon and koff rates and the concentrations used, the modified Bloch McConnell equations[49] can be used. […]
For simplicity, the same transverse relaxation rate R2 was assumed for all protein states and the chemical shift of the partially unbound state PL^* to be the same as for the free protein, that is ΩP . ΩPL is the chemical shift of the bound state and L the equilibrium concentration of the free peptide. […] Thereby the k1,on and k1,off rate constants were chosen such that their ratio was in the range of the measured or predicted Kd values[21] and that all signals during the titration could be fitted well (see text, Supplementary Fig. 12). […]

[2] = test system: N^AM4C; test: [15N,1H]-HSQC peptide titration, N^AM4C/NM4C; format: binding; conditions: 310 K, 250 μM dArmRP
Description: All experiments were recorded on Bruker Neo 600 or 700 MHz spectrometers, employing cryogenically cooled or Prodigy ^1H, ^13C, ^15N triple-resonance probes. Pulse field gradients with coherence selection[46] were applied to all heteronuclear ^15N,^1H experiments using standard Bruker pulse sequences, together with the Rance-Palmer method for sensitivity enhancement. All spectra were processed in TOPSPIN using cosine-bell-shifted window functions prior to Fourier transformation, and analyzed in CARA[48]. Chemical shift assignments were obtained from triple-resonance and HCCH-type 3D NMR experiments using the standard Bruker pulse-program library. […]
as §1
Assignments of the spectra required for CSPs were performed through segmental labeling as detailed in the Results section. […] CSPs were calculated using the following formula[50]9 δHf−δHb/1^2+δNf−δNb/4^2 where δH and δN represent the chemical shifts in the proton and nitrogen dimensions, respectively, while f and b represent the free and bound states, respectively. […]

[3] = biological target: N^AM4C designed Armadillo repeat protein (dArmRP) with the redesigned N^A (artificial) cap, four identical internal modules M and the C cap; test: NMR titration; [15N,1H]-HSQC chemical shift perturbations; 10 mM peptide stock titrated in 0.1 equivalent steps to 250 uM dArmRP in NMR buffer up to 1.5 equivalents, then 0.5 equivalent steps up to 5.5 equivalents; 310 K
[4] = biological target: N^AM4C designed Armadillo repeat protein (dArmRP) with the redesigned N^A (artificial) cap, four identical internal modules M and the C cap; test: NMR titration; line-shape simulation of traces from [15N,1H]-HSQC titrations; three-state model P + L = PL = PL*; parameters adjusted by visual inspection, k1,on and k1,off chosen so that their ratio fits the measured or predicted Kd
[5] = biological target: N^YM7C designed Armadillo repeat protein (dArmRP) with the N^Y cap, seven identical internal modules M and the C cap; test: NMR titration; [15N,1H]-HSQC chemical shift perturbations; 10 mM peptide stock titrated in 0.1 equivalent steps to 250 uM dArmRP in NMR buffer up to 1.5 equivalents, then 0.5 equivalent steps up to 5.5 equivalents; 310 K
[6] = biological target: N^AM7C designed Armadillo repeat protein (dArmRP) with the N^A cap, seven identical internal modules M and the C cap; test: NMR titration; line-shape simulation of traces from [15N,1H]-HSQC titrations; three-state model P + L = PL = PL*; parameters adjusted by visual inspection, k1,on and k1,off chosen so that their ratio fits the measured or predicted Kd
[7] = biological target: mCherry-tagged N^YM7C; test: FRET or BRET; FRET-based stopped-flow assay; 20 nM GFP-tagged peptide mixed 1:1 (volume) with 50-250 nM mCherry-tagged NM7C for kon; koff from competition: preincubated 50 nM tagged peptide and 40 nM tagged protein mixed 1:1 with 2 uM unlabeled competitor

Molecule: (Lys-Arg)4 [(KR)4]
k2 (isomerization of bound state, PL to PL*) [1]: 30 s^–1
k2’ (PL* to PL) [1]: 700 s^–1
peptide required for full saturation [2]: 1.3 equiv.

equivalents of peptide required for full saturation [3]: 1.3 equiv.
k1,off (step 1, overall unbinding; line-shape simulation parameter) [4]: 300 s^–1
k1,on (step 1, overall binding; line-shape simulation parameter) [4]: 1e+09 M⁻¹ s⁻¹
k2 (step 2, exchange in the bound state, PL to PL*) [4]: 30 s^–1
k2’ (step 2, exchange in the bound state, PL* to PL) [4]: 700 s^–1
Molecule: Ac-KRKRKRKR-OH [(KR)4 peptide, (Lys-Arg)4 octapeptide]

equivalents of peptide required for full saturation [3]: 1 equiv.
equivalents of peptide required for full saturation [5]: 1 equiv.
k1,off (step 1, overall unbinding; line-shape simulation parameter) [6]: 0.0003 s^–1
k1,on (step 1, overall binding; line-shape simulation parameter) [6]: 6.2e+08 M^–1·s^–1
k2 (step 2, exchange in the bound state, PL to PL*) [6]: 30 s^–1
k2’ (step 2, exchange in the bound state, PL* to PL) [6]: 100 s^–1
Molecule: Ac-KRKRKRKRKRKRKR-OH [(KR)7 peptide]

koff [7]: 0.23 s⁻¹
Molecule: KRKRKRKR [GFP-tagged (KR)4 peptide]
